Here are results for two compounds from paper PMC8533160, “First Crystal Structure of Bacterial Oligopeptidase B in an Intermediate State: The Roles of the Hinge Region Modification and Spermine” (Biology, 2021).

By inhibition is commonly meant the change of the read-out against control, counted positive when it falls. By Km is commonly meant the concentration of substrate that gives half-maximal velocity. Usually kcat stands for the maximal rate divided by the concentration of active sites. Usually kcat/Km stands for the turnover number divided by the Michaelis constant.

Data set [1] has as its target T1, PSP (oligopeptidase B from Serratia proteomaculans) (Serratia proteamaculans, UniProt B3VI58).
T1 construct: gene opdB; recombinant from E. coli BL21(DE3); 685 residues with tag; 76 kDa; monomer
As to the kind of experiment: differential scanning calorimetry. Type of data set: binding. The settings on record: 2 mM spermine; 25 mM Na-phosphate, pH 7.8; 2 mg/mL protein.

Data set [2] has as its target T1, PSP (oligopeptidase B from Serratia proteomaculans). Nature of the data set: initial rate of BAPNA hydrolysis. Type of data set: biochemical. The settings on record: read-out: % inhibition at 5 mM.
In data set [3] the test system is N=C(N)NCCCC(NC(=O)c1ccccc1)C(=O)Nc1ccc([N+](=O)[O-])cc1. Nature of the data set: purified protein. The data set is classed as biochemical, Serratia proteamaculans. The following applies: 0.1 M Tris-HCl, pH 8.0, 2% DMSO, 25 °C.
In data set [4] the test system is N=C(N)NCCC[C@H](NC(=O)OCc1ccccc1)C(=O)N[C@@H](CCCNC(=N)N)C(=O)Nc1ccc([N+](=O)[O-])cc1. Nature of the data set: purified protein. Type of data set: biochemical, Serratia proteamaculans. The settings on record: 0.1 M Tris-HCl, pH 8.0, 2% DMSO, 25 °C.
In data set [5] the test system is N=C(N)NCCC[C@H](NC(=O)[C@H](CCCCN)NC(=O)OCc1ccccc1)C(=O)Nc1ccc([N+](=O)[O-])cc1. As to the kind of experiment: purified protein. The following applies: 0.1 M Tris-HCl, pH 8.0, 2% DMSO, 25 °C. The data set is classed as biochemical, Serratia proteamaculans.

Consider `NCCCNCCCCNCCCN` [spermine], for which the dTmax in data set [1] was 1 degree. For the same compound, the inhibition at 5000 µM in data set [2] was 20%.
Take “PSP (oligopeptidase B from Serratia proteomaculans) (Serratia proteamaculans)”: the Km is 78.1 µM in data set [3], 4.35 µM in data set [4] and 20.8 µM in data set [5]. Further, the kcat in data set [3] amounted to 13.2 s⁻¹; in data set [4], 36.4 s⁻¹; in data set [5], 50.8 s⁻¹. Further, the kcat/Km came to 168000 M⁻¹ s⁻¹ in data set [3], 8.35e+06 M⁻¹ s⁻¹ in data set [4] and 2.43e+06 M⁻¹ s⁻¹ in data set [5].
